{
  "source": "patent US20240254220A1",
  "about": "“COMBINED THERAPY USING ANTI-CD300C ANTIBODY” (CentricsBio, Inc., priority 2021, published 2024)",
  "molecules": {"B1": {"name": "CL7: anti-CD300c monoclonal antibody, VH3VL1 phage library, VH SEQ ID 327, VL SEQ ID 328 (antibody, V domains shown)", "VH": "EVQLLESGGGLVQPGGSLRLSCAASGFTFSRYAMSWVRQAPGKGLEWVSAISGSGGSTYYADSVKGRFTISRDNSKNTLYLQMNSLRAEDTAVYYCARSSQGIFDIWGQGTLVTVSS", "VL": "QSVLTQPPSASGTPGQRVTISCSGNNIGTRRVHWYQQLPDTAPKLLIYSKNNRPSGVPDRFSGSKSGTSASLAISGLRSEDEADYYCAAWDDSLSGPVFGGGTKLTVL", "modifications": "CL7 Heavy Chain Variable Region; CL7 Light Chain Variable Region"}},
  "tested_on": "B16F10 melanoma cells",
  "test": "In vivo cancer growth inhibition, B16F10 melanoma model",
  "design": "species or system C57BL/6 mice",
  "settings": "CL7 25 mg/kg, α-PD-1 10 mg/kg, α-CTLA4 4 mg/kg i.p. twice a week, 4 times; 20 days",
  "experimental": "In order to identify whether the anti-CD300c monoclonal antibody CL7 is effective in other carcinomas in addition to a CT26 colon cancer mouse model, an additional experiment was conducted with melanoma mouse models. B16F10 melanoma cells at 7×10^5 cells were transplanted by subcutaneous injection into 8-week-old male C57BL/6 mice to prepare syngeneic mouse tumor models. Animal breeding and experiments were all conducted in a SPF facility. On day 8 after transplantation of the melanoma cell line, the mice with a tumor size of 50 mm^3 to 100 mm^3 were intraperitoneally injected with 25 mg/kg of CL7, 10 mg/kg of α-PD-1, and 4 mg/kg of α-CTLA4. More specifically, the mice were injected, twice a week for 2 weeks (over a total of 4 times), with each of the anti-CD300c monoclonal antibody, the anti-PD-1 antibody, the anti-CD300c monoclonal antibody+the anti-PD-1 antibody (Combo), and the anti-CD300c monoclonal antibody+the anti-PD-1 antibody+the anti-CTLA-4 antibody (Triple), and for a control group, the mice were injected with the same amount of phosphate buffered saline (PBS). The cancer size was measured for 20 days.",
  "data": [
    {"molecule": "B1", "values": [
      {"measurement": "cancer growth (cancer size)", "result": "inhibited"}
    ]}
  ]
}
